# In patent US20140221281A1 (Sanofi, published 2014):
# Where two headings read alike, the source gives them in different places. *1 amine or outer side, *2 acyl side, *3 side chain or, on linkers, in order; H or OH if unused. Where no end group is shown, it is not given here. Side-chain parts run from the residue outwards. [ ]: non-standard residue; d: D form. The star is where a group is joined. γGlu = O=C(O)[C@H](CCC(=O)[*:2])N[*:1]; Palmitoyl = CCCCCCCCCCCCCCCC(=O)*; αMeK = C[C@](N)(CCCCN)C(=O)O; Aib = CC(C)(N)C(=O)O
# T1: human GIP receptor (human, UniProt P48546 22-466)
# T1 sequence (looked up): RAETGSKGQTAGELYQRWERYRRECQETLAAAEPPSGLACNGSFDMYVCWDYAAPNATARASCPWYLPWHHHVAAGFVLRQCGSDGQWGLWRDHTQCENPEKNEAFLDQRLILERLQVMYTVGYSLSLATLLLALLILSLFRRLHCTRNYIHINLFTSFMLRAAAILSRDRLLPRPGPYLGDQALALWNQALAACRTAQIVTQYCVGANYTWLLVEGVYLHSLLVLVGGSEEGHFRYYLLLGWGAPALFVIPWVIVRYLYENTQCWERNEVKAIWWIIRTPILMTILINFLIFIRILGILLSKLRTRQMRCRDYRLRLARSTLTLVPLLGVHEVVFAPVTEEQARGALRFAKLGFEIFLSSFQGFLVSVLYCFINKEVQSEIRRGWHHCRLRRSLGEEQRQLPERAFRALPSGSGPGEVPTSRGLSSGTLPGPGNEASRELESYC
# What was measured:
# Test in all cases: cell-based or functional assay
# human GLP-1 receptor [1] = molecular target: T2, human GLP-1 receptor (human, UniProt P43220 24-463)
# human GIP receptor [2] = molecular target: T1, human GIP receptor
# human GLP-1 receptor [3] = molecular target: T2, human GLP-1 receptor; remark: listed apart in the source
# human GIP receptor [4] = molecular target: T1, human GIP receptor; remark: listed apart in the source
# human glucagon receptor = human glucagon receptor (human, UniProt P47871 26-477)
# human GLP-1 receptor [5] = molecular target: T2, human GLP-1 receptor; remark: listed apart in the source
# Target sequence in this assay (P43220 24-463): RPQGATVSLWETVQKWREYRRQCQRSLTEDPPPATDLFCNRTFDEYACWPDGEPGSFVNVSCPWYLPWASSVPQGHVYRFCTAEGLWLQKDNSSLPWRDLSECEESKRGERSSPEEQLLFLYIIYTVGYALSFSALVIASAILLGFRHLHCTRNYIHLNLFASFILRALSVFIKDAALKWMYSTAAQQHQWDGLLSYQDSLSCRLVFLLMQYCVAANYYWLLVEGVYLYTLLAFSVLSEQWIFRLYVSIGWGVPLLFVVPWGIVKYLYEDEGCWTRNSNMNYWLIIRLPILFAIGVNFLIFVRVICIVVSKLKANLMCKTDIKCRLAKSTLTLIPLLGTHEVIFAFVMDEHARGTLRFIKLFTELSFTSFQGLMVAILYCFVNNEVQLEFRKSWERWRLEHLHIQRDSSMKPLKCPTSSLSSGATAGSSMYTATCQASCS
# human GIP receptor [6] = molecular target: T1, human GIP receptor; remark: listed apart in the source
# human glucagon receptor, sequence (P47871 26-477): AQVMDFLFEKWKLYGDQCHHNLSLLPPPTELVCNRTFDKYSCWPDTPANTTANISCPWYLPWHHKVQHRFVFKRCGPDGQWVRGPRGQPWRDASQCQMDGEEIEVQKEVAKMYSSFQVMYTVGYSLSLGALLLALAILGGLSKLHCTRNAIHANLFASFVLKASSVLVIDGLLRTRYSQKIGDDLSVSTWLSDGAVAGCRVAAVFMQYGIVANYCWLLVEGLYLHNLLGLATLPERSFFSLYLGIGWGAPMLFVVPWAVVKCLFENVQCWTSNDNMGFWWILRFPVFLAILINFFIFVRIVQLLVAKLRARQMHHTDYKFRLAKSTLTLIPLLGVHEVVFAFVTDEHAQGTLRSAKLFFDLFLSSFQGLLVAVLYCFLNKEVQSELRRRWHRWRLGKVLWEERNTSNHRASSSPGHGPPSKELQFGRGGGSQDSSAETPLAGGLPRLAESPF
Binder,EC50 hGLP-1 R [pM] (cAMP formation) (human GLP-1 receptor [1]),EC50 hGIPR [pM] (cAMP formation) (human GIP receptor [2]),EC50 hGLP-1 R [pM] (cAMP formation) (human GLP-1 receptor [3]),EC50 hGIP R [pM] (cAMP formation) (human GIP receptor [4]),EC50 hGLUC R [pM] (cAMP formation) (human glucagon receptor),EC50 hGLP-1 R [pM] (cAMP formation) (human GLP-1 receptor [5]),EC50 hGIP R [pM] (cAMP formation) (human GIP receptor [6])
Y[Aib]EGTFTSDLSIQLEERAA[αMeK]EFIEWLKNTGPSSGAPPPS-NH2 (N-terminus assumed; SMILES CC[C@H](C)[C@H](NC(=O)[C@H](CO)NC(=O)[C@H](CC(C)C)NC(=O)[C@H](CC(=O)O)NC(=O)[C@H](CO)NC(=O)[C@@H](NC(=O)[C@H](Cc1ccccc1)NC(=O)[C@@H](NC(=O)CNC(=O)[C@H](CCC(=O)O)NC(=O)C(C)(C)NC(=O)[C@@H](N)Cc1ccc(O)cc1)[C@@H](C)O)[C@@H](C)O)C(=O)N[C@@H](CCC(N)=O)C(=O)N[C@@H](CC(C)C)C(=O)N[C@@H](CCC(=O)O)C(=O)N[C@@H](CCC(=O)O)C(=O)N[C@@H](CCCNC(=N)N)C(=O)N[C@@H](C)C(=O)N[C@@H](C)C(=O)N[C@@](C)(CCCCN)C(=O)N[C@@H](CCC(=O)O)C(=O)N[C@@H](Cc1ccccc1)C(=O)N[C@H](C(=O)N[C@@H](CCC(=O)O)C(=O)N[C@@H](Cc1c[nH]c2ccccc12)C(=O)N[C@@H](CC(C)C)C(=O)N[C@@H](CCCCN)C(=O)N[C@@H](CC(N)=O)C(=O)N[C@H](C(=O)NCC(=O)N1CCC[C@H]1C(=O)N[C@@H](CO)C(=O)N[C@@H](CO)C(=O)NCC(=O)N[C@@H](C)C(=O)N1CCC[C@H]1C(=O)N1CCC[C@H]1C(=O)N1CCC[C@H]1C(=O)N[C@@H](CO)C(N)=O)[C@@H](C)O)[C@@H](C)CC) [SEQ ID NO: 17],5.9,163,,,,,
Y[Aib]EGTFTSDLSIQK([γGlu-Palmitoyl])EERAA[αMeK]EFIEWLKNTGPSSGAPPPS-NH2 (N-terminus assumed; SMILES CCCCCCCCCCCCCCCC(=O)N[C@@H](CCC(=O)NCCCC[C@H](NC(=O)[C@H](CCC(N)=O)NC(=O)[C@@H](NC(=O)[C@H](CO)NC(=O)[C@H](CC(C)C)NC(=O)[C@H](CC(=O)O)NC(=O)[C@H](CO)NC(=O)[C@@H](NC(=O)[C@H](Cc1ccccc1)NC(=O)[C@@H](NC(=O)CNC(=O)[C@H](CCC(=O)O)NC(=O)C(C)(C)NC(=O)[C@@H](N)Cc1ccc(O)cc1)[C@@H](C)O)[C@@H](C)O)[C@@H](C)CC)C(=O)N[C@@H](CCC(=O)O)C(=O)N[C@@H](CCC(=O)O)C(=O)N[C@@H](CCCNC(=N)N)C(=O)N[C@@H](C)C(=O)N[C@@H](C)C(=O)N[C@@](C)(CCCCN)C(=O)N[C@@H](CCC(=O)O)C(=O)N[C@@H](Cc1ccccc1)C(=O)N[C@H](C(=O)N[C@@H](CCC(=O)O)C(=O)N[C@@H](Cc1c[nH]c2ccccc12)C(=O)N[C@@H](CC(C)C)C(=O)N[C@@H](CCCCN)C(=O)N[C@@H](CC(N)=O)C(=O)N[C@H](C(=O)NCC(=O)N1CCC[C@H]1C(=O)N[C@@H](CO)C(=O)N[C@@H](CO)C(=O)NCC(=O)N[C@@H](C)C(=O)N1CCC[C@H]1C(=O)N1CCC[C@H]1C(=O)N1CCC[C@H]1C(=O)N[C@@H](CO)C(N)=O)[C@@H](C)O)[C@@H](C)CC)C(=O)O) [SEQ ID NO: 11],5.1,7,5.1,7,3160,,
YAEGTFTSDVSIYLEGQAAKEFIAWLVKGR-NH2 [Tyr(1)Ile(12)-GLP1],,,,,,5,3660
